Source: publication doi:10.1101/2025.11.10.687524 (bioRxiv, 2025)

Columns and labels:
[1] = molecular target: BamA(S274C/C690S/C700S) (disulfide-crosslinked SurA–BAM complex 1) (E. coli, UniProt P0A940 21-810, S274C | C690S | C700S); test: cryo-EM structure
[2] = molecular target: BamA(C690S/C700S) (disulfide-crosslinked SurA–BAM complex 2) (E. coli, UniProt P0A940 21-810, C690S | C700S); test: cryo-EM structure

B1: SurA(N336C)-His10 (disulfide-crosslinked SurA–BAM complex 1) (natural protein)
chain: APQVVDKVAAVVNNGVVLESDVDGLMQSVKLNAAQARQQLPDDATLRHQIMERLIMDQIILQMGQKMGVKISDEQLDQAIANIAKQNNMTLDQMRSRLAYDGLNYNTYRNQIRKEMIISEVRNNEVRRRITILPQEVESLAQQVGNQNDASTELNLSHILIPLPENPTSDQVNEAESQARAIVDQARNGADFGKLAIAHSADQQALNGGQMGWGRIQELPGIFAQALSTAKKGDIVGPIRSGVGFHILKVNDLRGESKNISVTEVHARHILLKPSPIMTDEQARVKLEQIAADIKSGKTTFAAAAKEFSQDPGSACQGGDLGWATPDIFDPAFRDALTRLNKGQMSAPVHSSFGWHLIELLDTRNVDKTDAAQKDRAYRMLMNRKFSEEAASWMQEQRASAYVKILSN
binding result [1]: binds

B2: SurA(I297C)-His10 (disulfide-crosslinked SurA–BAM complex 2) (natural protein)
chain: APQVVDKVAAVVNNGVVLESDVDGLMQSVKLNAAQARQQLPDDATLRHQIMERLIMDQIILQMGQKMGVKISDEQLDQAIANIAKQNNMTLDQMRSRLAYDGLNYNTYRNQIRKEMIISEVRNNEVRRRITILPQEVESLAQQVGNQNDASTELNLSHILIPLPENPTSDQVNEAESQARAIVDQARNGADFGKLAIAHSADQQALNGGQMGWGRIQELPGIFAQALSTAKKGDIVGPIRSGVGFHILKVNDLRGESKNISVTEVHARHILLKPSPCMTDEQARVKLEQIAADIKSGKTTFAAAAKEFSQDPGSANQGGDLGWATPDIFDPAFRDALTRLNKGQMSAPVHSSFGWHLIELLDTRNVDKTDAAQKDRAYRMLMNRKFSEEAASWMQEQRASAYVKILSN
binding result [2]: binds
